Assay results: US20160031957A1 (UNITED STATES OF AMERICA AS REPRESENTED BY THE SECRETARY …, published 2016)

Tests used:
Test in all cases: interaction in ABC DLBCL cells expressing the RNF31 isoform; method not detailed
[1] = target: T1, RNF31 Q622L mutant expressed in ABC DLBCL cells (UniProt Q96EP0 1-1072)
T1 construct: Expressed in ABC DLBCL cells; also called RNF31 mutant
T1 sequence (looked up): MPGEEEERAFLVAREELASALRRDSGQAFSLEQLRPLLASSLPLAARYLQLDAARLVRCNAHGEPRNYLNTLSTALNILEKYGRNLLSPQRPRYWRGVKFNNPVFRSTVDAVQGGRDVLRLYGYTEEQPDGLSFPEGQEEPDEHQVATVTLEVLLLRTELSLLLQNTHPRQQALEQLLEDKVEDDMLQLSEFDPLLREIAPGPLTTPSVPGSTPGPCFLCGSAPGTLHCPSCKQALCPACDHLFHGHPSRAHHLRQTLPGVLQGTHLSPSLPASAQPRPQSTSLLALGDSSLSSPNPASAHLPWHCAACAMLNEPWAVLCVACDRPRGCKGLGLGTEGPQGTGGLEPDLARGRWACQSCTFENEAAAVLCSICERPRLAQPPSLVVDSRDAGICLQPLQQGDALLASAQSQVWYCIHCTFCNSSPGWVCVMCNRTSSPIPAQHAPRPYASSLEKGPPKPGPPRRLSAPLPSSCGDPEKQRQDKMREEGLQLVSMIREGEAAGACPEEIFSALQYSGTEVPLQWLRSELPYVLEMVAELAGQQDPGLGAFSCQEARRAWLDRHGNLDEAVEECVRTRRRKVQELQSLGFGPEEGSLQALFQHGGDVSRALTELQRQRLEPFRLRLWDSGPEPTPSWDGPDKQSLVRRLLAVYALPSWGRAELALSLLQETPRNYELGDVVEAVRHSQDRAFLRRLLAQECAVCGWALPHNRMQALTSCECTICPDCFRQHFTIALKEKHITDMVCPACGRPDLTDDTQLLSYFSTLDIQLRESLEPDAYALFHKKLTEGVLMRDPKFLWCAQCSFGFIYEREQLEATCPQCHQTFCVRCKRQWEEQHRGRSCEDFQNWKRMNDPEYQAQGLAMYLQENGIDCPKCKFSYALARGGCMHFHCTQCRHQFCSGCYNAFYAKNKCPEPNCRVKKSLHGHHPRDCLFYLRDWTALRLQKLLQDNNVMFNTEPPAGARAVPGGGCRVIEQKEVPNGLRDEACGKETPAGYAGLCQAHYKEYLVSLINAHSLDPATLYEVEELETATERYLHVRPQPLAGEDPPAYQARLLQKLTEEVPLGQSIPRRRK

[2] = target: T2, RNF31 Q584H mutant expressed in ABC DLBCL cells (UniProt Q96EP0 1-1072)
T2 construct: Expressed in ABC DLBCL cells; also called RNF31 mutant
T2 sequence (looked up): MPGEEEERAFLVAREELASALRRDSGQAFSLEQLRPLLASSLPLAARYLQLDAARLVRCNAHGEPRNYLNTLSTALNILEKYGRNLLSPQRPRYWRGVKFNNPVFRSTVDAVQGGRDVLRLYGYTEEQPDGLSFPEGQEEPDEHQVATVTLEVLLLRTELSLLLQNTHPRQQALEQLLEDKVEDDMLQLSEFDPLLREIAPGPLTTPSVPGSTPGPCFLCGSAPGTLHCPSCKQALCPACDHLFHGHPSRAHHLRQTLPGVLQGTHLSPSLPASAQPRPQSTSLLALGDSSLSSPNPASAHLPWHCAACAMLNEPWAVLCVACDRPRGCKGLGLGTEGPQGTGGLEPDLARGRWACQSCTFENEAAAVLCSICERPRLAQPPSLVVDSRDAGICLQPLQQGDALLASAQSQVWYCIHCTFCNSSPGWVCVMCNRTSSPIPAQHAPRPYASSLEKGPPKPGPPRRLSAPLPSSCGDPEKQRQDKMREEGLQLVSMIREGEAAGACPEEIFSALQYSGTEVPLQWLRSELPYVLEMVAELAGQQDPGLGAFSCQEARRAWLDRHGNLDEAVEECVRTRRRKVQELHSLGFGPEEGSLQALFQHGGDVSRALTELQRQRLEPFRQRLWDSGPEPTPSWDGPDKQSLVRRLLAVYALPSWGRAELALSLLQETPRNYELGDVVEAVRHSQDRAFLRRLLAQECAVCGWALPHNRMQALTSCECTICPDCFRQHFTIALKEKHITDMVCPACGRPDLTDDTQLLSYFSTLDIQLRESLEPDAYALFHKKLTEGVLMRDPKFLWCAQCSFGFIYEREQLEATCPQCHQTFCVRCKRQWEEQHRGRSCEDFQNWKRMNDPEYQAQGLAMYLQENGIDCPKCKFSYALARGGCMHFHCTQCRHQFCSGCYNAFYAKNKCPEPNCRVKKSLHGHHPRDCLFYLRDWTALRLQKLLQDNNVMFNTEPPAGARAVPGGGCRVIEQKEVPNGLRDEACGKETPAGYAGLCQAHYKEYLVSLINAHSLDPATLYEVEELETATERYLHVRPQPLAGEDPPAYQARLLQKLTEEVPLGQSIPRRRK

[3] = target: T3, wild type RNF31 expressed in ABC DLBCL cells (UniProt Q96EP0 1-1072)
T3 sequence (looked up): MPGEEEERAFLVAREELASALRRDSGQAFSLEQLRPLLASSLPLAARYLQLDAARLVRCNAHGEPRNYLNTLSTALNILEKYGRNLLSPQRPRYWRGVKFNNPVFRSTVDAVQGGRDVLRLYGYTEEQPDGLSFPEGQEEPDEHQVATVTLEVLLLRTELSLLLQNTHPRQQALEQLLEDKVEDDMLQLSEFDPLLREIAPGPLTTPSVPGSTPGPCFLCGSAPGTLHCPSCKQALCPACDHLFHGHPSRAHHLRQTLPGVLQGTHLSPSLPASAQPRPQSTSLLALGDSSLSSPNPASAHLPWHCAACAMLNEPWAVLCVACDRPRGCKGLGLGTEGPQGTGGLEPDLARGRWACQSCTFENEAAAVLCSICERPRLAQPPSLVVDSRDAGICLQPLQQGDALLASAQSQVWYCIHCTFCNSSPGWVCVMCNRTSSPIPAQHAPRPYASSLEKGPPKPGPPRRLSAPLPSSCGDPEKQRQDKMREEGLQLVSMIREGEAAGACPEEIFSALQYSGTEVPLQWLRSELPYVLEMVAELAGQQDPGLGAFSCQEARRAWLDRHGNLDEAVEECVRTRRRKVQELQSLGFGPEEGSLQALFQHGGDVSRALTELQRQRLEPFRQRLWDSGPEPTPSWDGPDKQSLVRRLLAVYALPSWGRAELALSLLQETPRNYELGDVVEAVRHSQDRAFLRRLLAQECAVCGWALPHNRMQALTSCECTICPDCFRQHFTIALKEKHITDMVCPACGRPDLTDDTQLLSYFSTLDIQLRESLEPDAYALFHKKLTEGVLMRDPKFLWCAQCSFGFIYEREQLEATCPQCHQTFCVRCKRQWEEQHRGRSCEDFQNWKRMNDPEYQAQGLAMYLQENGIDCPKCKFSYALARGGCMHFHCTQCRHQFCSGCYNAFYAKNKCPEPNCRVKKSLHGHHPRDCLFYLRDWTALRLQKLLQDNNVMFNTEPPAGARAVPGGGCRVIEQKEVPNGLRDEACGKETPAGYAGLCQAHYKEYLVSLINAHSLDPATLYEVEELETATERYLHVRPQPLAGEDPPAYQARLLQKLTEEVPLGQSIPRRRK

binding result [1]: binds
binding result [2]: binds
binding result [3]: binds
B1: MALT1 (enzyme, UniProt Q9UDY8 2-824, looked up)
chain: SLLGDPLQALPPSAAPTGPLLAPPAGATLNRLREPLLRRLSELLDQAPEGRGWRRLAELAGSRGRLRLSCLDLEQCSLKVLEPEGSPSLCLLKLMGEKGCTVTELSDFLQAMEHTEVLQLLSPPGIKITVNPESKAVLAGQFVKLCCRATGHPFVQYQWFKMNKEIPNGNTSELIFNAVHVKDAGFYVCRVNNNFTFEFSQWSQLDVCDIPESFQRSVDGVSESKLQICVEPTSQKLMPGSTLVLQCVAVGSPIPHYQWFKNELPLTHETKKLYMVPYVDLEHQGTYWCHVYNDRDSQDSKKVEIIIGRTDEAVECTEDELNNLGHPDNKEQTTDQPLAKDKVALLIGNMNYREHPKLKAPLVDVYELTNLLRQLDFKVVSLLDLTEYEMRNAVDEFLLLLDKGVYGLLYYAGHGYENFGNSFMVPVDAPNPYRSENCLCVQNILKLMQEKETGLNVFLLDMCRKRNDYDDTIPILDALKVTANIVFGYATCQGAEAFEIQHSGLANGIFMKFLKDRLLEDKKITVLLDEVAEDMGKCHLTKGKQALEIRSSLSEKRALTDPIQGTEYSAESLVRNLQWAKAHELPESMCLKFDCGVQIQLGFAAEFSNVMIIYTSIVYKPPEIIMCDAYVTDFPLDLDIDPKDANKGTPEETGSYLVSKDLPKHCLYTRLSSLQKLKEHLVFTVCLSYQYSGLEDTVEDKQEVNVGKPLIAKLDMHRGLGRKTCFQTCLMSNGPYQSSAATSGGAGHYHSLQDPFHGVYHSHPGNPSNVTPADSCHCSRTPDAFISSFAHHASCHFSRSNVPVETTDEIPFSFSDRLRISEK
notes: Endogenous protein in cell lysates
